Measurements taken from the Human Domainome abundance scans (Beltran et al. 2025).

B1: Tripartite motif-containing protein 6, residues 93 to 134; numbered along this chain, Q9C030 (parent)
chain: KAVLCADHGEKLQLFCQEDGKVICWLCERSQEHRGHHTFLVE
B2: Heterogeneous nuclear ribonucleoprotein U-like protein 2, residues 1 to 40; numbered along this chain, Q1KMD3 (parent)
chain: MEVKRLKVTELRSELQRRGLDSRGLKVDLAQRLQEALDAE

Variants of: B1
Test: abundance fitness (aPCA) (normalised: wild type 0, dead -1); higher = more abundant; growth selection in yeast, the domain comes from the species named
Conditions: Homo sapiens

Abundance fitness of substitutions, site by site:
H33: A -0.392, T -0.685, S -0.28, G -0.643, W -0.804, R -0.364, M -0.549, P -0.771, C -0.246
L26: G -0.042, Q 0.259, Y -0.015, T -0.011, A -0.029, R 0.084, H -0.079, N -0.057, V -0.05, I -0.172, C -0.155, S -0.059, K 0.104, M 0.474, F -0.517, P -0.186, W -0.169, D -0.05, E 0.082
I23: W -0.483, N -0.091, S -0.579, H -0.202, A -0.463, R -0.34, E -0.581, V -0.168, L -0.361, G -0.346, Q -0.842
Q31: G -0.083, Y -0.371, W -0.593, E -0.159, H -0.125, P -0.167, C -0.095, T -0.045, A -0.121, L -0.343, S -0.031, D -0.228, V 0.004, M -0.057, K -0.103
V22: Q -0.04, R 0.065, N 0.093, G -0.019, A -0.047, W -0.554, E -0.127
T38: E -0.265, G -0.177
W25: K 0.211, Q 0.12, L -0.025, F 0.023, S 0.068, P -0.008, N 0.11, T 0.094, D 0.067, I -0.024, G -0.01, V -0.033, E 0.047, R 0.173, A 0.118, H 0.12, C 0.026, M 0.135
C24: L -1.1, Q -0.748, G -1.16, E -0.627, T -0.664, K -0.615, R -1.02, A -0.886, Y -0.725, D -0.822, W -0.908, P -0.517, S -0.717, I -0.753, V -1.19
V41: W -0.043, T 0.064, C -0.165, P 0.036, N 0.041, R 0.149, L -0.034, A 0.16, Q 0.259, S -0.051, E 0.029, G -0.11, I -0.246, M -0.143
F39: P -0.487, A 0.165, Q 0.139, W -0.149, G 0.093, V 0.117, T 0.111, Y 0.161, K 0.435, R 0.19, M 0.01, N 0.041
R34: H 0.102, M -0.052, F 0.058, E -0.05, Q -0.041, C -0.14, A -0.007, S -0.035, N -0.058, L 0.092, V 0.035, Y 0.155, T 0.071, P -0.386, G -0.161, K -0.111
K21: Y -0.035, W -0.403, V 0.086, L -0.283, F -0.403, Q -0.358, E 0.047, N -0.034, D -0.29, R 0.086, M -0.284, T -0.183, H -0.136
E28: C -0.494, W -0.319, A -0.218, L -0.272, P -0.376, M -0.326, Y -0.362, I -0.414, S -0.116, H -0.481, Q -0.124, T 0.059, K -0.062, V -0.19, G -0.197, D -0.101
C27: R -0.603, L -0.8, T -0.882, A -0.755, V -1.32, Q -0.969, P -0.536, E -0.863, G -0.66, K -1.14, S -1.1
L40: W -0.112, M 0.207, G 0.052, D 0.091, Q 0.224, K -0.154, T 0.041, E 0.009, N 0.115, A 0.169, V -0.072, C -0.188, P 0.11, H -0.062
G35: A -0.116, L -0.202, M -0.397, D 0.022, P -0.366, V -0.41, K -0.244, I -0.377, R -0.195, T -0.079, S -0.096, Q -0.215, W -0.377
S30: K -0.307, Y -0.313, C -0.104, F -0.575, G -0.135, Q 0.022, W -0.686, A -0.016, M 0.026, H -0.209, D 0.002, N -0.142, P -0.7, I 0.167, R -0.168, E -0.148, T -0.15
H37: F 0.117, W -0.503, I -0.032, L -0.431, V -0.265, C -0.17, R 0.002, S -0.123
H36: S -0.365, Y -1.03, A -0.472, D -0.399, R -0.481, G -0.442, M -0.606, W -0.781, Q -0.303, L -0.523, E -0.355, K -0.558
E42: A -0.852, Y -0.421, T 0.216, C -0.426, D 0.094
R29: A -0.331, S -0.289, I -0.207, F -0.458, D -0.268, L -0.175, V -0.299, Y -0.24, E -0.094, Q -0.164, K -0.05, H 0.051, M -0.121, G -0.189

Variants of: B2
Test: as above
Conditions: Homo sapiens

Abundance fitness of substitutions, site by site:
E2: W -0.263, P -0.844, S -0.243, Y -0.161, Q -0.193, R -0.365, T -0.243, H -0.201, G -0.371, L -0.294, C -0.388, K -0.432, I -0.271, A -0.33, V -0.336
M1: A -0.461, F -0.179, S -0.589, R -0.236, K -0.136, Q -0.514, H -1.03, E -0.08, W -0.354, T -0.564, D -1.65, G -0.383, Y -0.749, V -0.277, L -0.339, C -0.414
R5: A 0.005, E 0.077, K 0.194, F -0.302, L -0.031, C -0.129, D 0.181, G -0.021, I -0.237
V3: Q -0.328, G -0.325, L -0.122, D -0.202, H -0.603, P -0.077, F -0.374, T -0.114, E -0.279, Y -0.226, S -0.245, A -0.107, I 0.048, K -0.501, C -0.357, R -0.567, W -0.432
K4: R -0.152, L -0.123, I -0.317, E 0.09, Y -0.112, H 0.335, W -0.097, F -0.182, C -0.181, M 0.091, P -0.37, G -0.126, A -0.06, D -0.082, T 0.019, Q -0.028
